The record followed here is publication PMC8065156, “Specificity of AMPylation of the human chaperone BiP is mediated by TPR motifs of FICD” (Nature Communications, 2021).

Substitutions are numbered along the chain they refer to. Names may count otherwise. Bounds are passed on as bounds.

Assay [1] concerns the target T1, BiP 19–654 (human, UniProt P11021 19-654). Briefly: cell-based or functional assay.
For a further assay, the target named is T2, BiP 28–549 T229A (human, UniProt P11021 28-549, T229A, T518 covalently linked through TReND-2 to C404 of FICD).
T2 construct: BiP, human, residues 28-549 of NP_005338.1; also called complexed BiP; source: E. coli Rosetta (DE3), purified (Ni-NTA, SEC); not shown: His6, N-terminal, cleaved
T2 sequence (P11021 28-549 T229A): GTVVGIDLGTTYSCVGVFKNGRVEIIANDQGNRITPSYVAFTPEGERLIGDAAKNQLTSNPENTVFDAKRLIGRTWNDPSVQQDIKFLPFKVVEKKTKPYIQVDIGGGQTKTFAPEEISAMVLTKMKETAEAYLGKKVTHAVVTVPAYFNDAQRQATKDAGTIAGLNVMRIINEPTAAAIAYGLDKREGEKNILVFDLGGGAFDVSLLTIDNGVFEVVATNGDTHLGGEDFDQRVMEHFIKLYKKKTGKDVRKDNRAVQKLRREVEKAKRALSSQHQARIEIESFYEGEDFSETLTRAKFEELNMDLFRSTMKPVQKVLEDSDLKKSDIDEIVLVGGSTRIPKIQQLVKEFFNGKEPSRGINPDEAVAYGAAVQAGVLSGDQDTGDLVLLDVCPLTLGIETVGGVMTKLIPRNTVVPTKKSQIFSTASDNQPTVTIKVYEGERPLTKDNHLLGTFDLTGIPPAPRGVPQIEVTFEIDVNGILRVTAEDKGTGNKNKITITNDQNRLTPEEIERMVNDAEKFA
Kind of assay: crystal structure; complex covalently linked through TReND-2 (C404 of FICD to T518 of BiP); crystallised with 1 mM AMP-PNP, 1 mM MgCl2, 10% glycerol; 0.2 M NaCl, 0.1 M Na/K phosphate pH 6.2, 10% PEG 8000, 19 °C. Conditions: both partners purified.

Assay [2] concerns the target T1, BiP 19–654.
Assay [3] addresses T1, BiP 19–654. The source holds these as a separate data set.
Another assay deals with BiP 19–654 R197A (human, UniProt P11021 19-654, R197A). Briefly: cell-based or functional assay.
Sequence of BiP 19–654 R197A (P11021 19-654 R197A): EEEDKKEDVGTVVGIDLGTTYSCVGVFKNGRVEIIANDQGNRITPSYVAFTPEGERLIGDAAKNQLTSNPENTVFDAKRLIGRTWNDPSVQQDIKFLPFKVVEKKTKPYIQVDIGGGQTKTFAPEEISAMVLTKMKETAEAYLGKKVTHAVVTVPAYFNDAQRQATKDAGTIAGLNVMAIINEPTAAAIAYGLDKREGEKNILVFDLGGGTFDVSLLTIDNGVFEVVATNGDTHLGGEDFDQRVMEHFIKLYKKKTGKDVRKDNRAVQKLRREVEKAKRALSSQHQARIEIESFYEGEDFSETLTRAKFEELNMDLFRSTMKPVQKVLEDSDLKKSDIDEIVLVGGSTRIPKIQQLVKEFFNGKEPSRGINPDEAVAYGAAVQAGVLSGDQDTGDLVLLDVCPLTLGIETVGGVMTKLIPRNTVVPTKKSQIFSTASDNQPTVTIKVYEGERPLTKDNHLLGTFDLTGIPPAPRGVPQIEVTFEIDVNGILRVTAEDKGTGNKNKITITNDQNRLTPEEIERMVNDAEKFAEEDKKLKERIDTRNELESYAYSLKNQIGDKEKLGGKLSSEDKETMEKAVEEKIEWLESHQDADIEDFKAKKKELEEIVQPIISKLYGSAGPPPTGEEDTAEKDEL
For a further assay, the target named is BiP 19–654 E217A (human, UniProt P11021 19-654, E217A). Kind of assay: cell-based or functional assay.
Sequence of BiP 19–654 E217A (P11021 19-654 E217A): as the sequence (P11021 19-654 R197A) above, with A179R, E199A counted along it
The next assay has as its target BiP 19–654 D238A (human, UniProt P11021 19-654, D238A). Kind of assay: cell-based or functional assay.
Another assay concerns the target BiP 19–654 V241A (human, UniProt P11021 19-654, V241A). Briefly: cell-based or functional assay.
For a further assay, the target named is BiP 19–654 V415A (human, UniProt P11021 19-654, V415A). Kind of assay: cell-based or functional assay.
Sequence of BiP 19–654 V415A (P11021 19-654 V415A): as the sequence (P11021 19-654 R197A) above, with A179R, V397A counted along it
In the next assay the target is T3, BiP 19–654 T229A T518A (human, UniProt P11021 19-654, T229A | T518A).
T3 construct: BiP, human, residues 19-654 of NP_005338.1; source: E. coli Rosetta (DE3), purified (Ni-NTA, SEC)
T3 sequence (P11021 19-654 T229A/T518A): as the sequence (P11021 19-654 R197A) above, with A179R, T211A, T500A counted along it
Briefly: SEC; 5 µM FICD incubated with 100 µM BiP in HKM buffer with 5 mM ATP for at least 2 h; Superdex 10/300 75 pg. Conditions: both partners purified. (SEC sorts molecules by how far they enter the pores of the column.)

T1 sequence (P11021 19-654): as the sequence (P11021 19-654 R197A) above, with A179R counted along it
Sequence of BiP 19–654 D238A (P11021 19-654 D238A): as the sequence (P11021 19-654 R197A) above, with A179R, D220A counted along it
Sequence of BiP 19–654 V241A (P11021 19-654 V241A): as the sequence (P11021 19-654 R197A) above, with A179R, V223A counted along it

B1: FICD 102–445 E234G E404C^TReND-2 (enzyme, human, UniProt Q9BVA6 102-445, looked up)
chain: GKLEARAALNQALEMKRQGKREKAQKLFMHALKMDPDFVDALTEFGIFSEEDKDIIQADYLYTRALTISPYHEKALVNRDRTLPLVEEIDQRYFSIIDSKVKKVMSIPKGNSALRRVMEETYYHHIYHTVAIGGNTLTLSEIRHILETRYAVPGKSLEEQNEVIGMHAAMKYINTTLVSRIGSVTISDVLEIHRRVLGYVDPVEAGRFRTTQVLVGHHIPPHPQDVEKQMQEFVQWLNSEEAMNLHPVEFAALAHYKLVYIHPFIDGNGRTSRLLMNLILMQAGYPPITIRKEQRSDYYHVLCAANEGDVRPFIRFIAKCTETTLDTLLFATTEYSVALPEAQP
modifications: TReND-2 (thiol-reactive nucleotide derivative) on C404
As to B1, in the assay with BiP 19–654 [1], the “rate of covalent ternary complex formation (SDS-PAGE, densitometry) with 0.5 mM ATP against 0.5 mM ADP” value is around 15 fold faster and the “rate of covalent ternary complex formation (SDS-PAGE, densitometry) without nucleotide against 0.5 mM ATP” value worked out at 173 fold slower.

B2: FICD 102–445 T168A T183A E234G L258D E404C^TReND-2 (enzyme, human, UniProt Q9BVA6 102-445, looked up)
chain: B1 chain with T67A, T82A, L157D
modifications: TReND-2 (thiol-reactive nucleotide derivative) on C404, covalently linked to T518 of BiP
notes: FICD (HYPE), human, residues 102-445 of NP_009007.2; also called FICD^TReND-2; HYPE; source: E. coli Rosetta (DE3), purified (Ni-NTA, SEC)
Regarding B2, the binding result with BiP 28–549 T229A is given as “binds”.

B3: FICD 102–458 L258D E105A (enzyme)
chain: GKLAARAALNQALEMKRQGKREKAQKLFMHALKMDPDFVDALTEFGIFSEEDKDIIQADYLYTRALTISPYHEKALVNRDRTLPLVEEIDQRYFSIIDSKVKKVMSIPKGNSALRRVMEETYYHHIYHTVAIEGNTLTLSEIRHILETRYAVPGKSDEEQNEVIGMHAAMKYINTTLVSRIGSVTISDVLEIHRRVLGYVDPVEAGRFRTTQVLVGHHIPPHPQDVEKQMQEFVQWLNSEEAMNLHPVEFAALAHYKLVYIHPFIDGNGRTSRLLMNLILMQAGYPPITIRKEQRSDYYHVLEAANEGDVRPFIRFIAKCTETTLDTLLFATTEYSVALPEAQPNHSGFKETLPVKP
As for B3, the AMPylation of BiP 19–654 WT by the FICD 102–458 L258D mutant, 30 min, western blot with αAMP antibody, against FICD L258D with BiP 19–654 [2] is 80 % reduction.

B4: FICD 102–458 L258D H401A (enzyme)
chain: B3 chain with A4E, H300A
As for B4, in the assay with BiP 19–654 [3], the AMPylation of BiP 19–654 WT by the FICD 102–458 L258D Fic-domain mutant, 30 min, western blot with αAMP antibody, against FICD L258D is 60 % impaired.

B5: FICD 102–458 L258D K127A (enzyme)
chain: B3 chain with A4E, K26A
Regarding B5, the AMPylation of BiP 19–654 WT by the FICD 102–458 L258D mutant, 30 min, western blot with αAMP antibody, against FICD L258D in the assay with BiP 19–654 [2] was above 98 % reduction.

B6: FICD 102–458 L258D R396A (enzyme)
chain: B3 chain with A4E, R295A
B6: the AMPylation of BiP 19–654 WT by the FICD 102–458 L258D Fic-domain mutant, 30 min, western blot with αAMP antibody, against FICD L258D with BiP 19–654 [3] was found to be 95 % decrease.

B7: FICD 102–458 L258D K121A (enzyme)
chain: B3 chain with A4E, K20A
As for B7, in the assay with BiP 19–654 [2], the AMPylation of BiP 19–654 WT by the FICD 102–458 L258D mutant, 30 min, western blot with αAMP antibody, against FICD L258D was above 98 % reduction.

B8: FICD 102–458 L258D H318A (enzyme)
chain: B3 chain with A4E, H217A
In the case of B8, the AMPylation of BiP 19–654 WT by the FICD 102–458 L258D Fic-domain mutant, 30 min, western blot with αAMP antibody, against FICD L258D with BiP 19–654 [3] is 45 % impaired.

B9: FICD 102–458 L258D (enzyme, human, UniProt Q9BVA6 102-458, looked up)
chain: B3 chain with A4E
notes: FICD (HYPE), human, residues 102-458 of NP_009007.2; also called FICD L258D; monomeric FICD; source: E. coli Rosetta (DE3), purified (Ni-NTA, SEC)
B9: the “AMPylation of the BiP 19–654 mutant by FICD 102–458 L258D, 30 min, western blot with αAMP antibody, against BiP WT” value is above 80 % decrease with BiP 19–654 R197A; above 80 % decrease with BiP 19–654 E217A; above 80 % decrease in the assay with BiP 19–654 D238A; above 95 % decrease with BiP 19–654 V241A; 70 % decrease with BiP 19–654 V415A. In addition, the binding result with BiP 19–654 T229A T518A is recorded as “binds”.

B10: FICD 102–458 L258D K124A (enzyme)
chain: B3 chain with A4E, K23A
For the molecule B10, the AMPylation of BiP 19–654 WT by the FICD 102–458 L258D mutant, 30 min, western blot with αAMP antibody, against FICD L258D with BiP 19–654 [2] is above 98 % reduction.

B11: FICD 102–458 L258D E404A (enzyme)
chain: B3 chain with A4E, E303A
With B11, the AMPylation of BiP 19–654 WT by the FICD 102–458 L258D Fic-domain mutant, 30 min, western blot with αAMP antibody, against FICD L258D with BiP 19–654 [3] came out at 75 % impaired.
